# Test results: patent US20170152290A1
# Molecular target: LRP1 receptor (Low Density Lipoprotein Receptor-Related Protein) on Vero cells
# Assay: cell-based or functional assay
Binder,"Antiviral activity in Vero cells, IC50 (plaque reduction, DENV2) [µM]","Antiviral activity IC50 vs DENV1 (plaque reduction, Vero cells) [µM]","Antiviral activity IC50 vs DENV2 (plaque reduction, Vero cells) [µM]","Antiviral activity IC50 vs DENV3 (plaque reduction, Vero cells) [µM]","Antiviral activity IC50 vs DENV4 (plaque reduction, Vero cells) [µM]"
CIEVYVTINGKKYNWFICKKK (modifications not checked) [beta hairpin peptide PHB9],7,,,,
CSNIVIGIGDKALKINWCKKK (modifications not checked) [peptide HDIII3CL2],20,,,,
FWNWKWEKNKWTWNVEGGKKK (modifications not checked) [beta hairpin peptide PHB5],17,,,,
CVNWTEPDKKVNWCKKK (modifications not checked) [beta hairpin peptide PHB1],75,,,,
CIEVYWTRPKWKVNWFICKKK (modifications not checked) [beta hairpin peptide PHB4],0.003,0.002,0.003,0.005,0.01
SSNIVIGIGDKALKINWSKKK (modifications not checked) [peptide HDIII3CLC-],> 100,,,,
CIEVNWTEPDKKVNWFICKKK (modifications not checked) [beta hairpin peptide PHB3],17,,,,
CIEVNVTINGKKYNWFICKKK (modifications not checked) [beta hairpin peptide PHB8],15,,,,
CSNIVIGIGDKALKINACKKK (modifications not checked) [peptide HDIII3CLW-],> 100,,,,
FWNWKWEPNKWTWNVEGGKKK (modifications not checked) [beta hairpin peptide PHB6],33,,,,
CSNIVIGIGDKALAINWCKKK (modifications not checked) [peptide HDIII3CLK-],> 100,,,,
CVNVTINGKKYNWCKKK (modifications not checked) [beta hairpin peptide PHB7],79,,,,
CVYWTRPKWKVNWCKKK (modifications not checked) [beta hairpin peptide PHB2],12,,,,

# Molecular target: T1, sLRP1-CIV (cluster IV of LRP1 fused to the constant region of a human IgG1) (human)
# Assay: SPR (Biacore X), sLRP1-CIV immobilised on CM5 chip, peptide at 20 µM; RU observed at 160 s
row,Binder,RU (at 160 s) [RU]
1,CSNIVIGIGDKALKINWCKKK (modifications not checked) [peptide HDIII3CL2],1010
2,CSNIVIGIGDKALAINWCKKK (modifications not checked) [peptide HDIII3CLK-],276

# Molecular target: T1, sLRP1-CIV (cluster IV of LRP1 fused to …)
# Assay: SPR (Biacore X), sLRP1-CIV immobilised on CM5 chip, peptide at 20 µM; RU at 270 s
row,Binder,RU (at 270 s) [RU]
1,CIEVYVTINGKKYNWFICKKK (modifications not checked) [beta hairpin peptide PHB9],1080
2,FWNWKWEKNKWTWNVEGGKKK (modifications not checked) [beta hairpin peptide PHB5],175
3,CVNWTEPDKKVNWCKKK (modifications not checked) [beta hairpin peptide PHB1],117
4,CIEVYWTRPKWKVNWFICKKK (modifications not checked) [beta hairpin peptide PHB4],3600
5,CVYWTRPKWKVNWCKKK (modifications not checked) [beta hairpin peptide PHB2],861
